Measured values as given in patent US20240228656A1 (HARPOON THERAPEUTICS, published 2024).

Columns and labels:
[1] = target: T1, EpCAM H13 Mask27 L040 (EpCAM targeting ProTriTAC with H13); experiment: binding assay, affinity summary
T1 construct: trispecific prodrug: masked anti-albumin sdAb-cleavable linker L040-anti-CD3 scFv-anti-EpCAM sdAb H13-His6; also called H13 ProTriTAC (L040)

[2] = target: T2, EpCAM H90 Mask27 L040 (EpCAM targeting ProTriTAC with H90); experiment: binding assay with kinetics, affinity summary (instrument not stated)
T2 construct: trispecific prodrug: masked anti-albumin sdAb-L040-anti-CD3 scFv-anti-EpCAM sdAb H90-His6
T2 sequence (chain, as listed by the source): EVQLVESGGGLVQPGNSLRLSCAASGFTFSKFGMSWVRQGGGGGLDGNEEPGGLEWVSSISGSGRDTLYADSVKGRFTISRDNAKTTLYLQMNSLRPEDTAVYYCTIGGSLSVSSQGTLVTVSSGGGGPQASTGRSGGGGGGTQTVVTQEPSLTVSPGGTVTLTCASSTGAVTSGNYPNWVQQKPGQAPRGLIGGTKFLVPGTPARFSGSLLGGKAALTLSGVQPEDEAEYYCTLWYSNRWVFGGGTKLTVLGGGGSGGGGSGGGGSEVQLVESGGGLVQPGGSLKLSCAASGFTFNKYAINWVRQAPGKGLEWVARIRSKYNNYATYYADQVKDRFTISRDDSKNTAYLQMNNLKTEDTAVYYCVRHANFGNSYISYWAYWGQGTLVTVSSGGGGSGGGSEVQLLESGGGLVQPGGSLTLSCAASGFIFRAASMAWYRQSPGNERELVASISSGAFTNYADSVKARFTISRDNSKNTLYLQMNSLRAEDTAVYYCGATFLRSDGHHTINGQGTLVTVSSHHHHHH

[3] = target: T3, EpCAM H90.2 Mask27 L040 (EpCAM targeting ProTriTAC with H90.2); experiment: as above
T3 construct: trispecific prodrug; also called H90.2 ProTriTAC (L040)
T3 sequence (chain, as listed by the source): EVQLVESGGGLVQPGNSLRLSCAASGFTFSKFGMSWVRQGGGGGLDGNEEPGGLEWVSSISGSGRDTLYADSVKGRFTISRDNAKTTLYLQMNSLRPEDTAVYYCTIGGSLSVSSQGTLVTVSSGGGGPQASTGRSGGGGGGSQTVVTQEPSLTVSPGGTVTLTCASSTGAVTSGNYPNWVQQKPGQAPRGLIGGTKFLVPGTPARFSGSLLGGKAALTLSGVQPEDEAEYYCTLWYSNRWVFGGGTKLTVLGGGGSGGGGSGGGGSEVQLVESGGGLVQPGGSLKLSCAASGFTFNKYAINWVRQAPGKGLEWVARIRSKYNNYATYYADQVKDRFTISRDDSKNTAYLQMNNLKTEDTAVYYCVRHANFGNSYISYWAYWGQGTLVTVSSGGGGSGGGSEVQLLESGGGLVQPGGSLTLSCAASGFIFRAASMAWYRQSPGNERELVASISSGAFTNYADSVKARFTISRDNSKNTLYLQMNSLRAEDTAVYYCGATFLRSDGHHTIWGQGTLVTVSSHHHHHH

T1 sequence (chain, as listed by the source): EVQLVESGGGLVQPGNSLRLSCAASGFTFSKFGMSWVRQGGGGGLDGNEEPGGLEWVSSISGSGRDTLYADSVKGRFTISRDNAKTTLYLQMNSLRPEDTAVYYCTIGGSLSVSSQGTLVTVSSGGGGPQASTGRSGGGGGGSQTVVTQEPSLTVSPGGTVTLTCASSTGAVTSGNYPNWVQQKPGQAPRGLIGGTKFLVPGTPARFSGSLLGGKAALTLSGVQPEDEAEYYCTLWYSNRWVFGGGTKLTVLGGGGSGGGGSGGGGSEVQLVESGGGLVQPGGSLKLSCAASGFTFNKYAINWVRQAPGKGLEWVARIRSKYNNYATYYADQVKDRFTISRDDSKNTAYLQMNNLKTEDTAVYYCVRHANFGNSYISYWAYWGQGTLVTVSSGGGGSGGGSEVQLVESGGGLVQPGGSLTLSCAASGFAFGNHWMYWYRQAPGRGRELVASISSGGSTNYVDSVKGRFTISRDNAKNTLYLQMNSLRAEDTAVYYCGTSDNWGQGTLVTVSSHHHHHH

B1: mouse EpCAM (other)
chain: QRDCVCDNYKLATSCSLNEYGECQCTSYGTQNTVICSKLASKCLAMKAEMTHSKSGRRIKPEGAIQNNDGLYDPDCDEQGLFKAKQCNGTATCWCVNTAGVRRTDKDTEITCSERVRTYWIIIELKHKERESPYDHQSLQTALQEAFTSRYKLNQKFIKNIMYENNVITIDLMQNSSQKTQDDVDIADVAYYFEKDVKGESLFHSSKSMDLRVNGEPLDLDPGQTLIYYVDEKAPEFSMQGLT
modifications: biotinylated
notes: also called muEpCAM (biotinylated version of mouse EpCAM antigen)
binding result [1]: no binding
Kd [2]: 0.26 nM
Kd [3]: 0.15 nM
